± gives the standard deviation.
Assay: protein stability index of a GFP-peptide fusion (GPS, HEK-293T) (PSI 1-6); higher = more stable
[1] = treatment: DMSO, c terminus: a fixed tail appended
[2] = treatment: MLN4924 1 uM, 8 h, c terminus: a fixed tail appended
[3] = treatment: DMSO, c terminus: native
[4] = treatment: MLN4924 1 uM, 8 h, c terminus: native
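Further: 24-mer peptide tiles fused after GFP, lentivirally expressed, FACS-sorted into six equal bins by GFP/DsRed ratio, decoded by Illumina sequencing, PSI is the read-weighted mean bin number.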

| Sequence | protein stability index [1] | protein stability index [2] | protein stability index [3] | protein stability index [4] |
| --- | --- | --- | --- | --- |
| PPPELMDVSLVGGPADCSPPHPAP [DYRK1B] | 5.08 ± 0.22 | 5.1 ± 0.11 |  |  |
| PPPPIDNGDITSFLLSVYAPGSSV [CFHR2] | 2.66 ± 0.33 | 2.65 ± 0.37 |  |  |
| PPPPPGPPPPPGLPSDGDHQVPTT [WASL] | 5.48 ± 0.26 | 5.63 ± 0.21 |  |  |
| PPPPPKEGHQEGLVELPASFRELL [SCNN1D] | 4.29 ± 0.12 | 4.29 ± 0.1 |  |  |
| PPRGPLAKHRLVPPAQGRVSRRLS [TRIM9] | 4.21 ± 0.27 | 4.16 ± 0.49 |  |  |
| PPRPPPRGTPPRRHSFRKHLYLLR [N4BP2L1] | 3.32 ± 0.35 | 3.56 ± 0.23 |  |  |
| PQALPEPMQESKAEGNNQAPGEEE [CHGA] | 5.54 ± 0.24 | 5.5 ± 0.35 |  |  |
| PQERTLTLVDTGIGMTKADLINNL [HSP90AB1] | 3.49 ± 0.33 | 3.67 ± 0.26 |  |  |
| PQHQAGSDSLLTGMAFFKMREMFF [CNOT7] | 2.13 ± 0.16 | 2.15 ± 0.099 |  |  |
| PQLGLDGPGEPDVRDGFSATFEKI [PSD2] | 4.73 ± 0.18 | 4.67 ± 0.13 |  |  |
| PQPDPVFLEALSSRYLGDSGLDDF [SERTAD3] | 4.19 ± 0.47 | 4.08 ± 0.14 |  |  |
| PRGYFHTFAGDTCQVALNFANEEE [WASL] | 4.43 ± 0.27 | 4.34 ± 0.12 |  |  |
| PRPNRLFLRQLRASHLGNELEGTE [C2CD2L] | 3.92 ± 0.15 | 4.05 ± 0.26 |  |  |
| PRRRRPGCYAYRQNPEAIAAAAMY [MYORG] | 2.78 ± 0.19 | 2.9 ± 0.34 |  |  |
| PRSPECRMIPGQPPASARRLSVPR [IRX6] | 4.47 ± 0.24 | 4.52 ± 0.12 |  |  |
| PRTRGSWSQPQPLKAPCLNGDTT [RASAL3] |  |  | 3.62 ± 0.36 | 3.5 ± 0.36 |
| PRTSQSEETRVWHRRDGKWQNVHF [CAMK2B] | 3.29 ± 0.3 | 3.39 ± 0.22 |  |  |
| PSHSDNLLHGLNLLWRKQLFCDVT [KLHL14] | 1.96 ± 0.33 | 2.16 ± 0.3 |  |  |
| PSMNPDGYEVAAAQGPNKPGYLVG [CPN1] | 4.33 ± 0.19 | 4.25 ± 0.24 |  |  |
| PSNGRIDIKQLIAKKIKLTAEAEE [SOAT1] | 3.19 ± 0.59 | 3.33 ± 0.31 |  |  |
| PTMPALFSDHTFRHYAYLRDSLSH [INTS4] | 2.3 ± 0.14 | 2.31 ± 0.12 |  |  |
| PVGEPVTNVRLQPAATWNLEEKRL [FCHO1] | 4.52 ± 0.27 | 4.63 ± 0.24 |  |  |
| PVGLVMEYMETGSLEKLLASEPLP [RIPK4] | 3.46 ± 0.48 | 3.13 ± 0.22 |  |  |

| Sequence | protein stability index [1] | protein stability index [2] | protein stability index [3] | protein stability index [4] |
| --- | --- | --- | --- | --- |
| PVLKRSSESMENINSGYETRRKKG [KMT2E] | 4.87 ± 0.28 | 4.72 ± 0.29 |  |  |
| PVTPQVGEGRKSRKFSRLSCLRRR [SMG5] | 4.36 ± 0.068 | 4.34 ± 0.12 |  |  |
| PVTSIGIDNLGLKLEENLQETHSA [SLC35F2] | 5.06 ± 0.19 | 5 ± 0.11 |  |  |
| PVVSAVWGHCEVTMRYINGLDPEP [SPSB4] | 2.28 ± 0.23 | 2.54 ± 0.53 |  |  |
| PVVSMDLDPQPITDEEEGLIWVVG [PTPRD] | 3.96 ± 0.29 | 4.29 ± 0.48 |  |  |
| PYPVLFHNIFLLGGSSTSERCLLN [NLN] | 3.23 ± 1.5 | 2.59 ± 0.8 |  |  |
| QAELSYKKVSEGPPLRLWRSVIEV [DLC1] | 2.19 ± 0.31 | 2.49 ± 0.43 |  |  |
| QAKILQCYRENTHQTLKCSALATQ [CHCHD3] | 3.21 ± 0.31 | 3.33 ± 0.26 |  |  |
| QALAGASSGRELGRPKELQPKKLH [ZNF263] | 5.01 ± 0.46 | 4.82 ± 0.14 |  |  |
| QALEKIFLQKVAQMPQEEVELLPP [BRD3] | 2.63 ± 0.26 | 2.83 ± 0.4 |  |  |
| QAQQGRSSLVWLFSQLYLYSFISL [MCOLN1] | 2.86 ± 0.46 | 3.09 ± 0.25 |  |  |
| QDGLPPTWRDFRTLEAFHDTCRQ [MED27] |  |  | 4.16 ± 0.27 | 4.21 ± 0.4 |
| QEAMKRLRGAKAFRLPGLSRRERE [FCHO1] | 3.91 ± 0.25 | 4.13 ± 0.2 |  |  |
| QEELQIQAAVAAGDVHTVRKMLEQ [ASB7] | 5 ± 0.39 | 4.73 ± 0.21 |  |  |
| QEHSNSVGGQDTGATWRTSGLLEE [C18orf25] | 5.28 ± 0.27 | 4.96 ± 0.18 |  |  |
| QFVEGVRMEEIVEGCTGALHILAR [CTNNB1] | 3.12 ± 0.52 | 3.05 ± 0.64 |  |  |
| QGPTPRYFTWDEVAQRSGCEERWL [FADS1] | 3.43 ± 0.27 | 3.39 ± 0.24 |  |  |
| QGSLENMSKLLKRQNDILQVVSQG [CD207] | 3.39 ± 0.22 | 3.64 ± 0.22 |  |  |
| QKLNPGFDLAKGNAGKVNLPKELP [PLAGL1] | 4.27 ± 0.14 | 4.15 ± 0.3 |  |  |
| QKVLGKALSLIRFPLMTIEEFAAG [BTBD1] | 3.06 ± 0.57 | 2.52 ± 0.38 |  |  |
| QLKESKSKIDALSSEKLNLQKDLE [CEP70] | 5.03 ± 0.1 | 5.16 ± 0.13 |  |  |
| QLLSAMGSLCSLWFGASVLSLLEL [SCNN1D] | 3.2 ± 0.61 | 3.19 ± 0.49 |  |  |
| QLREALKILAERVLILETMIGLYE [EMID1] | 2.31 ± 0.27 |  |  |  |

| Sequence | protein stability index [1] | protein stability index [2] | protein stability index [3] | protein stability index [4] |
| --- | --- | --- | --- | --- |
| QMMSATAQNREPESVEQLESRIVE [SNX8] | 5.37 ± 0.17 | 5.56 ± 0.24 |  |  |
| QNFLDPGYPLPKLDMNFSLENREE [ZNF449] | 5.02 ± 0.24 | 4.74 ± 0.29 |  |  |
| QNQSDSLLALAGAVQRLEGALWGL [SCARA5] | 2.4 ± 0.35 | 2.33 ± 0.32 |  |  |
| QNVARIPEFELLWKDIIHNPQALS [INTS3] | 2.47 ± 0.34 | 2.53 ± 0.3 |  |  |
| QPWVEVVLALRNMKNLLFSEMWDI [MFSD9] | 2.78 ± 0.66 | 2.44 ± 0.44 |  |  |
| QPYTCSICRRNFSRRSSLLRHQKL [ZNF75A] | 3.43 ± 0.37 | 3.71 ± 0.35 |  |  |
| QQGLGASYRTESAQRQACMYASSA [TBX5] | 3.8 ± 0.17 | 3.82 ± 0.2 |  |  |
| QQMVASGTGAVVTSLFMTPLDVVK [SLC25A39] | 2.8 ± 0.17 | 2.98 ± 0.21 |  |  |
| QQTGDDDEVDDFEDFIFSHFFGDK [PBXIP1] | 4.71 ± 0.51 | 4.9 ± 0.23 |  |  |
| QRRRRVENAGGSPSPEPAGRRAAL [RSAD1] | 5.11 ± 0.4 | 5.15 ± 0.27 |  |  |
| QRTAKGKPVLAKDSSNPYPNFNFN [AASDHPPT] | 3.43 ± 0.45 | 3.74 ± 0.15 |  |  |
| QSERQRHESQQLATETQALAQRTQ [TEKT4] | 5.43 ± 0.21 | 5.32 ± 0.16 |  |  |
| QSLPKASPVTTSPTAATTQNPVLS [LCOR] | 4.92 ± 0.19 | 4.85 ± 0.21 |  |  |
| QSNLEPLSPMTASSFLSFAELFSY [FEM1A] | 2.26 ± 0.26 | 2.42 ± 0.3 |  |  |
| QSRSFRILAHLTGTEFMQDPDEEH [PDLIM7] | 3.95 ± 0.11 | 4.17 ± 0.07 |  |  |
| QTEKLLQFQDLTGIESMDQCRHTL [FAF2] | 3.82 ± 0.21 | 3.66 ± 0.33 |  |  |
| QTFQWVKLPATMPEPVYFHCAAVT [KLHDC10] | 2.28 ± 0.36 | 2.33 ± 0.39 |  |  |
| QVAKTKQQIEEQRVQVQVVERAQQ [FLOT1] | 5.18 ± 0.16 | 5.32 ± 0.15 |  |  |
| QVEALAAAGVDHVILAVSYMSQVL [GMPPB] | 2.92 ± 0.65 | 2.48 ± 0.45 |  |  |
| QVFLDRINRADYCPECYPDNPANR [TOR1AIP2] | 2.76 ± 0.33 | 2.9 ± 0.28 |  |  |
| QVTCSILAYLPFKLEKSIDSYYRL [PCDHGA10] | 2.79 ± 1.1 | 2.05 ± 0.81 |  |  |
| QVVSQGWKYFKGNFYYFSLIPKTW [CD207] | 2.14 ± 0.41 | 2.1 ± 0.39 |  |  |
| QYAMTRAQRVRAAMFPETLDEGMQ [CTNNB1] | 3.76 ± 0.29 | 3.68 ± 0.39 |  |  |

| Sequence | protein stability index [1] | protein stability index [2] | protein stability index [3] | protein stability index [4] |
| --- | --- | --- | --- | --- |
| QYEVSNFARNGALSTHNWTYWQCG [RSAD1] | 2.43 ± 0.25 | 2.05 ± 0.23 |  |  |
| QYQANKVTHTLTMRQRISRVEESA [PPEF2] | 3.65 ± 0.16 | 3.77 ± 0.16 |  |  |
| QYRPSDLLCPETYVWVPIEQCLPS [ATE1] | 2.28 ± 0.23 | 2.47 ± 0.28 |  |  |
| RAGEGFIICYSITDRRSFHEVREF [RIT1] | 3.04 ± 0.81 | 2.48 ± 0.71 |  |  |
| RASFWLALVGCVISDNPERYSTNL [EDNRA] | 2.85 ± 0.68 | 2.97 ± 0.62 |  |  |
| RCEMEAQNQEYKMLLDIKTRLEQE [KRT15] | 4.44 ± 0.17 | 4.6 ± 0.18 |  |  |
| RDIDLKNRRGGPPFAFVEFEDPRD [SRSF1] | 4.03 ± 0.35 | 4.27 ± 0.18 |  |  |
| RDSLTQPDEEPMHYGNIMYDRRVI [RSPH3] | 3.62 ± 0.45 | 3.8 ± 0.23 |  |  |
| REAVSQLRELCRLWLRPETHTKEQ [ZNF24] | 2.8 ± 0.32 | 3.03 ± 0.41 |  |  |
| RELLLDGGYLQRTTYDRRSSQERK [RSPH3] | 4.39 ± 0.28 | 4.8 ± 0.24 |  |  |
| RENMSDGDTSATESGDEVPVELYT [KMT2E] | 5.32 ± 0.21 | 5.21 ± 0.22 |  |  |
| REVMESAVGNSSGSGQNEESPRKR [FBXO28] | 5.51 ± 0.14 | 5.49 ± 0.38 |  |  |
| RFFACPSKATFSRNIMNLIDIVAI [KCNA3] | 2.8 ± 0.61 | 2.87 ± 0.46 |  |  |
| RFFASSSLHHTSECTQMDHLGCMH [ALDH8A1] | 2.87 ± 0.22 | 2.85 ± 0.32 |  |  |
| RFFIDFPHIEEQQKKIESYLHNHF [TENT5D] | 2.13 ± 0.38 | 2.35 ± 0.18 |  |  |
| RGDIFERIVHLQETCDLGKIKPEA [NLN] | 3.59 ± 0.37 | 3.6 ± 0.29 |  |  |
| RGFMEMNGRGELVESLKRFCASTR [AUP1] | 2.54 ± 0.3 | 2.73 ± 0.18 |  |  |
| RGGGAAGAGGGGSGAGGGSGGSGG [KLHDC10] | 5.2 ± 0.66 | 4.89 ± 0.48 |  |  |
| RHFGTILNYLRDGSVPLPESTREL [KCTD13] | 2.78 ± 0.16 | 2.94 ± 0.41 |  |  |
| RIKIWDVYTGKLLLNLVDHTEVVR [WSB1] | 2.61 ± 0.59 | 2.57 ± 0.34 |  |  |

From the supplement of paper PMC10567573
